Test results as given in patent US9371393B2, “Class I anti-CEA antibodies and uses thereof” (Immunomedics, Inc., priority 2009, dated 2016).

T1: ^125I-CEA (Homo sapiens, UniProt P06731)
T1 construct: purchased ROCHE
T1 sequence (P06731 35-676): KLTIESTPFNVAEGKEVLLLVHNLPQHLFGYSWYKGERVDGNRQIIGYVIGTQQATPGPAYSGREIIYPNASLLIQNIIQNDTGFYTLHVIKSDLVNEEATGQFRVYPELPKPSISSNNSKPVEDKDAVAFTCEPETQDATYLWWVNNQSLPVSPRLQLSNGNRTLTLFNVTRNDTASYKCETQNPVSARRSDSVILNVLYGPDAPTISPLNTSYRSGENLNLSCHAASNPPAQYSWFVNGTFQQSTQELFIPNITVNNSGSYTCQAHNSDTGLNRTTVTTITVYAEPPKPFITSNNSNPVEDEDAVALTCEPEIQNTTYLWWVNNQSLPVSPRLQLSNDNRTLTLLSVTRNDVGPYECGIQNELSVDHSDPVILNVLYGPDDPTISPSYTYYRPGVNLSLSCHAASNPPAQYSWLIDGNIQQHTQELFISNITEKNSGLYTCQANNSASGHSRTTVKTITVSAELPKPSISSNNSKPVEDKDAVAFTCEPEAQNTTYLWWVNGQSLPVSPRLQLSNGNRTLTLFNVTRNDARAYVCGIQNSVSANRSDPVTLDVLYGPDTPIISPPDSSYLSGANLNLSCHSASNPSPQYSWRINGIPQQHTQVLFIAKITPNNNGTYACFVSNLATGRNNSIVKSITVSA

B1: MN-15: murine Class I anti-CEA MAb, IgG1 kappa, binds A1B1 domain of CEACAM5 and CEACAM6 (antibody, V domains shown)
VL: DIQLTQSPAIMSASPGEKVTMTCSASSRVSYIHWYQQKSGTSPKRWIYGTSTLASGVPARFSGSGSGTSYSLTISSMEAEDAATYYCQQWSYNPPTFGAGTKLELKR
VH: EVRLVESGGGLVQGPGSLRLSCAASGFALTDYYMSWVRQSPGKTLEWLGFIANKANGHTTDYSPSVKGRFTISRDNSQTILYLQMNTLRTEDSATYYCARDMGIRWNFDVWGQGTTVTVSS
B2: MN-15 Fab′: monovalent Fab′ fragment of murine MN-15 (antibody, V domains shown)
VL: B1 VL
VH: B1 VH

Key:
[1] = tested on: MDA-468 adhesion to fibronectin; test: Adhesion to extracellular matrix proteins assay, MDA-468; format: cell-based, human
Procedure: (§1) Adhesion to extracellular matrix proteins assay—The assay was done using the CYTOMATRIX™ screening kit from CHEMICON® (Kit #ECM205, Temecula, Calif.). The kit contains 96-well plates with strips coated with fibronectin, vitronectin, laminin, collagen-I, or collagen-IV. Subconfluent cell cultures were used for these studies. Cells (1×10^6 cells/mol) were seeded onto coated substrate and incubated at 37° C. for 1 hour in a CO2 incubator in PBS containing Ca^2+/Mg^2+ (200 μL per well). Adherent cells were fixed and stained. The plate was washed to remove unadhered cells and stained with 100 μL per well of MTS (Cell Titer Aq 96, PROMEGA®, Madison, Wis.) for 5 minutes at room temperature. Excess stain was removed with three PBS washes. Solubilization buffer [100 μL of a 50:50 mixture of 0.1 mol/L NaH2PO4 (pH 4.5) and 50% ethanol] was added to each well. Relative attachment was determined using absorbance readings (A540 nm-A570 nm).

^125I-CEA = target: T1, ^125I-CEA; test: ROCHE 125I-CEA radioimmunoassay (RIA); format: binding; conditions: 0.01 and 0.10 M NH4 acetate buffer
Procedure: Hybridoma supernatants were screened for CEA reactive antibody by the ROCHE® ^125I-CEA radioimmunoassay (RIA) in 0.01 and 0.10 M NH4 acetate buffer. Positive clones were recloned. The granulocyte reactivity of CEA-reactive MAb was determined by whole-blood indirect fluorescent flow cytometric analysis (Sharkey et al. Cancer Res., 1990, 50:2823-31). Two MAb with properties similar to those of NP-2 and NP-3, designated MN-2 and MN-6, were selected for additional development.

[2] = tested on: MCF-7 cells adhesion to HUVEC; test: Endothelial cell adhesion assay, MCF-7; format: cell-based, human
Procedure: Endothelial cell adhesion assay—Human umbilical vein endothelial cells (HUVEC; Cambrex, San Diego, Calif.) were grown in collagen-coated dishes in EGM Media in a humidified atmosphere with 5% CO2 at 37° C. At passages 2 to 5, cells were plated at a density of 4×10^4 cells per well in 96-well plates 24 hours before the assay. Interleukin-1β (IL-1β, 1 ng/mol) was added 4 hours before the assay. At the start of the study, the medium with the IL-1β was removed and fresh DMEM with 1% bovine serum albumin (BSA) added and incubated for 30 minutes. Fresh medium without antibodies or with 10 μg/mol of MN-15 Fab′, MN-3 Fab′, or Ag8 Fab′ was added. Tumor cells (1×10^6 cells/mol) prelabeled overnight with ^3H-thymidine (100 μL per well using 1.0 μCi/mL) were added to HUVEC cultures and incubated for 30 minutes at 37° C. with rotation in medium with 20% FBS. Samples were washed thrice with PBS to remove unattached cells. Attached cells were solubilized with 0.1 N NaOH and radioactivity was measured in a β scintillation counter. The cpm attached/total cpm added (attaching potential) was determined.

CaPAN-1 cells = test: Collagen-based invasion assay, CaPAN-1; format: cell-based, human; conditions: 10% FBS chemoattractant, 72-hour incubation
Procedure: Collagen-based invasion assay—The assay was done using CHEMICON® Kit (#ECM551, MILLIPORE®, Billerica, Mass.). Tumor cells at 80% confluence and were serum-starved for 18 to 24 hours before the assay was used. Cells were harvested with 5 mol of 2 mmol/L EDTA/PBS per 100-mm dish and incubated at 37° C. for 5 to 15 minutes. Cells were collected into 10 to 20 mol of quenching medium (serum-free DMEM containing 5% BSA) to inactivate trypsin/EDTA from the harvesting buffer. Cells were pelleted, resuspended in quenching medium (1×10^6 cells/mol), and appropriate antibody Fabs were added to individual cell aliquots. Cell invasion potential was determined as follows. Baseline invasion and invasion in the presence of a chemoattractant (10% FBS) were measured after a 72-hour incubation period at 37° C. in a 5% CO2 incubator. The bottom side of the collagen-coated polycarbonate membrane insert of the invasion chamber was placed in 400 μL of cell stain for 20 minutes at room temperature and washed. The dye was extracted and transferred into a 96-well microtiter plate for colorimetric measurements (A560 nm).

[3] = tested on: MCA38 (CEACAM5−/CEACAM6−) adhesion to HUVEC; test: Endothelial cell adhesion assay, MCA38; format: cell-based, murine; conditions: 10 μg/mol Fab′
Procedure: Percentage adhesion of various tumor cells with varying amounts of expressed CEACAM5 and CEACAM6 to HUVEC cells in the absence or presence of MN-15 Fab′, MN-3 Fab′, or Ag8 Fab′ control. Cells were labeled with 1 μCi/mL of ^3H-thymidine and added to HUVEC cultures and incubated for 30 minutes at 37° C. Samples were washed thrice with PBS to remove unattached cells. Attached tumor cells were solubilized with 0.1 N NaOH and radioactivity was measured in a B-scintillation counter. The cpm attached/total cpm added (attaching potential) was determined. Results of a typical study are presented. Cell lines used include BT-20 (CEACAM5+/CEACAM6+), MCF-7 (CEACAM5−/CEACAM6+), HT-29 (CEACAM5−/CEACAM6+), Moser (CEACAM5+/CEACAM6−), MCA38cea (CEACAM5+/CEACAM6−), and MCA38 (CEACAM5−/CEACAM6−).
Endothelial cell adhesion assay—Human umbilical vein endothelial cells (HUVEC; Cambrex, San Diego, Calif.) were grown in collagen-coated dishes in EGM Media in a humidified atmosphere with 5% CO2 at 37° C. At passages 2 to 5, cells were plated at a density of 4×10^4 cells per well in 96-well plates 24 hours before the assay. Interleukin-1β (IL-1β, 1 ng/mol) was added 4 hours before the assay. […] Attached cells were solubilized with 0.1 N NaOH and radioactivity was measured in a β scintillation counter. The cpm attached/total cpm added (attaching potential) was determined.

[4] = tested on: tumor cell adhesion to ECM proteins (fibronectin, vitronectin, laminin, collagen-I, collagen-IV); test: Adhesion to extracellular matrix proteins assay, panel of six cell lines; format: cell-based, human
Procedure: as §1

Molecule	decrease of adhesion to fibronectin [1] [%]	ion sensitivity of CEA binding / reactivity with ion-sensitive CEA determinant (^125I-CEA)	decrease in adhesion [2] [%]	reduction in cell invasion (CaPAN-1 cells) [%]	effect on tumor cell-endothelial cell adhesion [3]	effect on adhesion to fibronectin [4]
B1	51	binding to epitopes of the ion-sensitive CEA determinant	–	–	–	–
B2	–	–	41	73	neither MN-3 Fab′ targeting the N domain nor MN-15 Fab′ targeting the A1B1 domain of CEACAM6 had an effect	induced a decrease in adhesion of three of six cell lines
